According to article doi:10.1101/2020.05.26.100743 (bioRxiv, 2020):

Key:
Assay in all cases: SPR
[1] = target: VH1 C110S mutant (His-MBP-VH1 fusion) (vaccinia virus Copenhagen strain, UniProt P20495 1-171, C110S)
[2] = target: VH1 K20A mutant (His-MBP-VH1 fusion) (vaccinia virus Copenhagen strain, UniProt P20495 1-171, K20A)
[3] = target: VH1 K22A mutant (His-MBP-VH1 fusion) (vaccinia virus Copenhagen strain, UniProt P20495 1-171, K22A)
[4] = target: VH1 M60A mutant (His-MBP-VH1 fusion) (vaccinia virus Copenhagen strain, UniProt P20495 1-171, M60A)
[5] = target: VH1 T25A mutant (His-MBP-VH1 fusion) (vaccinia virus Copenhagen strain, UniProt P20495 1-171, T25A)
[6] = target: VH1 T59A mutant (His-MBP-VH1 fusion) (vaccinia virus Copenhagen strain, UniProt P20495 1-171, T59A)

Measured: binding result

VDADEYLIPQQ [EGFR pTyr peptide 986-VDADEpYLIPQQ-998 (11-mer)]
binds: all assays above
